In paper PMC10786891, “Massively parallel profiling of RNA-targeting CRISPR-Cas13d” one finds Kd data, which are given here for 27 molecules.

T1: EsCas13d, nuclease-dead (Eubacterium siraeum, UniProt B0MS50, R295A;H300A;R849A;H854A)
T1 sequence: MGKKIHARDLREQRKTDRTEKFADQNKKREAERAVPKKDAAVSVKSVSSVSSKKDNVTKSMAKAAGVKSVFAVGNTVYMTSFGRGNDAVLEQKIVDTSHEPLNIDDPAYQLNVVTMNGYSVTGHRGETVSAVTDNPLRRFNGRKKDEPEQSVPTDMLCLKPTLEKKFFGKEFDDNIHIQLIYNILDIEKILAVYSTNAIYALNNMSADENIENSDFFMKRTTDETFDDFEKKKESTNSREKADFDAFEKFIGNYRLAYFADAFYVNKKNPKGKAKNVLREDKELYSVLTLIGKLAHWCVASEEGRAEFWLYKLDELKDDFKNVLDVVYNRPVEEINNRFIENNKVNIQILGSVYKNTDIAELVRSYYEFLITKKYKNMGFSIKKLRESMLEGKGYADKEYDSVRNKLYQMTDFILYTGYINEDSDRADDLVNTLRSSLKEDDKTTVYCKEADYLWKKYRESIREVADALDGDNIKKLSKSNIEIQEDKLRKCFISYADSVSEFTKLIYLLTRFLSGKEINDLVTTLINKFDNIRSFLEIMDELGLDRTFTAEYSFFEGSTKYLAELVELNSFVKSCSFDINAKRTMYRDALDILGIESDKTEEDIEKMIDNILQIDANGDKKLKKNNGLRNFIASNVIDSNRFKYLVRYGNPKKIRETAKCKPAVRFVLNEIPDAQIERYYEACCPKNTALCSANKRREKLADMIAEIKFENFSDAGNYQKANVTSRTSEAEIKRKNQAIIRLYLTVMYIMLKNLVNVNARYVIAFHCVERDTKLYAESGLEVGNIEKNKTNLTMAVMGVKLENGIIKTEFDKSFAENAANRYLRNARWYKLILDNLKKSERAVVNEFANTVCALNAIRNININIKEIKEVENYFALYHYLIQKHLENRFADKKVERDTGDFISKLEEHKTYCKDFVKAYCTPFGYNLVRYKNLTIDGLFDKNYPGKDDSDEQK

B1: target 1 C7A,A20U (mixed)
RNA 1: CACCCGUGCAAAAAUGCAGGGGUCUAAAACUGAGCGGAUAACCUCUCUAUGG
RNA 2: GGGAAUGGAUCCACAUCUACGAAUUCGUACCUUAGAGAGGUUAUACGCUCACCGAGAUCGGAAGAGCACACGU
B2: target 1 insG 3' of 6,insA 3' of 3 (mixed)
RNA 1: CACCCGUGCAAAAAUGCAGGGGUCUAAAACUGAGCGGAUAACCUCUCUAUGG
RNA 2: GGGAAUGGAUCCACAUCUACGAAUUCGUACCAUAGAGAGGUUAUCCGGCUACACCGAGAUCGGAAGAGCACACGU
B3: target 1 insU 3' of 15,insG 3' of 3 (mixed)
RNA 1: CACCCGUGCAAAAAUGCAGGGGUCUAAAACUGAGCGGAUAACCUCUCUAUGG
RNA 2: GGGAAUGGAUCCACAUCUACGAAUUCGUACCAUAGAGUAGGUUAUCCGCUGCACCGAGAUCGGAAGAGCACACGU
B4: target 1 insG 3' of 10,insG 3' of 6 (mixed)
RNA 1: CACCCGUGCAAAAAUGCAGGGGUCUAAAACUGAGCGGAUAACCUCUCUAUGG
RNA 2: GGGAAUGGAUCCACAUCUACGAAUUCGUACCAUAGAGAGGUUGAUCCGGCUCACCGAGAUCGGAAGAGCACACGU
B5: target 1 insU 3' of 6 (mixed)
RNA 1: CACCCGUGCAAAAAUGCAGGGGUCUAAAACUGAGCGGAUAACCUCUCUAUGG
RNA 2: GGGAAUGGAUCCACAUCUACGAAUUCGUACCAUAGAGAGGUUAUCCUGCUCACCGAGAUCGGAAGAGCACACGU
B6: target 1 insG 3' of 4,insA 3' of 4 (mixed)
RNA 1: CACCCGUGCAAAAAUGCAGGGGUCUAAAACUGAGCGGAUAACCUCUCUAUGG
RNA 2: GGGAAUGGAUCCACAUCUACGAAUUCGUACCAUAGAGAGGUUAUCCGCGAUCACCGAGAUCGGAAGAGCACACGU
B7: target 1 insU 3' of 17,insA 3' of 7 (mixed)
RNA 1: CACCCGUGCAAAAAUGCAGGGGUCUAAAACUGAGCGGAUAACCUCUCUAUGG
RNA 2: GGGAAUGGAUCCACAUCUACGAAUUCGUACCAUAGUAGAGGUUAUCACGCUCACCGAGAUCGGAAGAGCACACGU
B8: target 1 insG 3' of 7,insU 3' of 5 (mixed)
RNA 1: CACCCGUGCAAAAAUGCAGGGGUCUAAAACUGAGCGGAUAACCUCUCUAUGG
RNA 2: GGGAAUGGAUCCACAUCUACGAAUUCGUACCAUAGAGAGGUUAUCGCGUCUCACCGAGAUCGGAAGAGCACACGU
B9: target 1 insU 3' of 22,insG 3' of 9 (mixed)
RNA 1: CACCCGUGCAAAAAUGCAGGGGUCUAAAACUGAGCGGAUAACCUCUCUAUGG
RNA 2: GGGAAUGGAUCCACAUCUACGAAUUCGUACUCAUAGAGAGGUUAGUCCGCUCACCGAGAUCGGAAGAGCACACGU
B10: target 1 G12U,A16C (mixed)
RNA 1: CACCCGUGCAAAAAUGCAGGGGUCUAAAACUGAGCGGAUAACCUCUCUAUGG
RNA 2: GGGAAUGGAUCCACAUCUACGAAUUCGUACCAUAGCGAGUUUAUCCGCUCACCGAGAUCGGAAGAGCACACGU
B11: target 1 insA 3' of 19,insG 3' of 16 (mixed)
RNA 1: CACCCGUGCAAAAAUGCAGGGGUCUAAAACUGAGCGGAUAACCUCUCUAUGG
RNA 2: GGGAAUGGAUCCACAUCUACGAAUUCGUACCAUAAGAGGAGGUUAUCCGCUCACCGAGAUCGGAAGAGCACACGU
B12: target 1 G15C,G17C (mixed)
RNA 1: CACCCGUGCAAAAAUGCAGGGGUCUAAAACUGAGCGGAUAACCUCUCUAUGG
RNA 2: GGGAAUGGAUCCACAUCUACGAAUUCGUACCAUACACAGGUUAUCCGCUCACCGAGAUCGGAAGAGCACACGU
B13: target 1 insA 3' of 19,insA 3' of 13 (mixed)
RNA 1: CACCCGUGCAAAAAUGCAGGGGUCUAAAACUGAGCGGAUAACCUCUCUAUGG
RNA 2: GGGAAUGGAUCCACAUCUACGAAUUCGUACCAUAAGAGAGAGUUAUCCGCUCACCGAGAUCGGAAGAGCACACGU
B14: target 1 insA 3' of 6,insG 3' of 4 (mixed)
RNA 1: CACCCGUGCAAAAAUGCAGGGGUCUAAAACUGAGCGGAUAACCUCUCUAUGG
RNA 2: GGGAAUGGAUCCACAUCUACGAAUUCGUACCAUAGAGAGGUUAUCCAGCGUCACCGAGAUCGGAAGAGCACACGU
B15: target 1 C6A,A18U (mixed)
RNA 1: CACCCGUGCAAAAAUGCAGGGGUCUAAAACUGAGCGGAUAACCUCUCUAUGG
RNA 2: GGGAAUGGAUCCACAUCUACGAAUUCGUACCAUUGAGAGGUUAUCAGCUCACCGAGAUCGGAAGAGCACACGU
B16: target 1 insU 3' of 13,insG 3' of 8 (mixed)
RNA 1: CACCCGUGCAAAAAUGCAGGGGUCUAAAACUGAGCGGAUAACCUCUCUAUGG
RNA 2: GGGAAUGGAUCCACAUCUACGAAUUCGUACCAUAGAGAGUGUUAUGCCGCUCACCGAGAUCGGAAGAGCACACGU
B17: target 1 del3,del8 (mixed)
RNA 1: CACCCGUGCAAAAAUGCAGGGGUCUAAAACUGAGCGGAUAACCUCUCUAUGG
RNA 2: GGGAAUGGAUCCACAUCUACGAAUUCGUACCAUAGAGAGGUUACCGCCACCGAGAUCGGAAGAGCACACGU
B18: target 1 G15A,G17U (mixed)
RNA 1: CACCCGUGCAAAAAUGCAGGGGUCUAAAACUGAGCGGAUAACCUCUCUAUGG
RNA 2: GGGAAUGGAUCCACAUCUACGAAUUCGUACCAUAUAAAGGUUAUCCGCUCACCGAGAUCGGAAGAGCACACGU
B19: target 1 insA 3' of 22,insU 3' of 9 (mixed)
RNA 1: CACCCGUGCAAAAAUGCAGGGGUCUAAAACUGAGCGGAUAACCUCUCUAUGG
RNA 2: GGGAAUGGAUCCACAUCUACGAAUUCGUACACAUAGAGAGGUUAUUCCGCUCACCGAGAUCGGAAGAGCACACGU
B20: target 1 U3A,G12C (mixed)
RNA 1: CACCCGUGCAAAAAUGCAGGGGUCUAAAACUGAGCGGAUAACCUCUCUAUGG
RNA 2: GGGAAUGGAUCCACAUCUACGAAUUCGUACCAUAGAGAGCUUAUCCGCACACCGAGAUCGGAAGAGCACACGU
B21: target 1 insG 3' of 16,insA 3' of 8 (mixed)
RNA 1: CACCCGUGCAAAAAUGCAGGGGUCUAAAACUGAGCGGAUAACCUCUCUAUGG
RNA 2: GGGAAUGGAUCCACAUCUACGAAUUCGUACCAUAGAGGAGGUUAUACCGCUCACCGAGAUCGGAAGAGCACACGU
B22: target 1 insC 3' of 12,insA 3' of 5 (mixed)
RNA 1: CACCCGUGCAAAAAUGCAGGGGUCUAAAACUGAGCGGAUAACCUCUCUAUGG
RNA 2: GGGAAUGGAUCCACAUCUACGAAUUCGUACCAUAGAGAGGCUUAUCCGACUCACCGAGAUCGGAAGAGCACACGU
B23: target 1 insG 3' of 19,insU 3' of 9 (mixed)
RNA 1: CACCCGUGCAAAAAUGCAGGGGUCUAAAACUGAGCGGAUAACCUCUCUAUGG
RNA 2: GGGAAUGGAUCCACAUCUACGAAUUCGUACCAUGAGAGAGGUUAUUCCGCUCACCGAGAUCGGAAGAGCACACGU
B24: target 1 insC 3' of 18,insA 3' of 17 (mixed)
RNA 1: CACCCGUGCAAAAAUGCAGGGGUCUAAAACUGAGCGGAUAACCUCUCUAUGG
RNA 2: GGGAAUGGAUCCACAUCUACGAAUUCGUACCAUACGAAGAGGUUAUCCGCUCACCGAGAUCGGAAGAGCACACGU
B25: target 1 insC 3' of 17,insU 3' of 12 (mixed)
RNA 1: CACCCGUGCAAAAAUGCAGGGGUCUAAAACUGAGCGGAUAACCUCUCUAUGG
RNA 2: GGGAAUGGAUCCACAUCUACGAAUUCGUACCAUAGCAGAGGUUUAUCCGCUCACCGAGAUCGGAAGAGCACACGU
B26: target 1 insA 3' of 12,insG 3' of 10 (mixed)
RNA 1: CACCCGUGCAAAAAUGCAGGGGUCUAAAACUGAGCGGAUAACCUCUCUAUGG
RNA 2: GGGAAUGGAUCCACAUCUACGAAUUCGUACCAUAGAGAGGAUUGAUCCGCUCACCGAGAUCGGAAGAGCACACGU
B27: target 1 insU 3' of 7,insA 3' of 6 (mixed)
RNA 1: CACCCGUGCAAAAAUGCAGGGGUCUAAAACUGAGCGGAUAACCUCUCUAUGG
RNA 2: GGGAAUGGAUCCACAUCUACGAAUUCGUACCAUAGAGAGGUUAUCUCAGCUCACCGAGAUCGGAAGAGCACACGU

For the series, the target named is T1, EsCas13d, nuclease-dead. The experiment in a line: crRNA (strand 1, pre-loaded); Mg2+; 40 mM Tris-HCl pH 7.5, 150 mM NaCl, 6 mM MgCl2, 1 mM DTT, 0.1% Tween-20, 0.2 mg/ml BSA; 25 C; 10 min per concentration, then washed. The note with it: tags: His6-TwinStrep-SUMO cleaved; N-terminal SNAP kept (SNAP-Surface 488); label: 3' end held by stalled T7 RNA polymerase.
In the case of B1, the equilibrium dissociation constant (Kd) (usually the free concentration of one partner at which half of the binding sites on the other are occupied at equilibrium, for simple one-to-one binding) amounted to 45 ± 5 nM. Then B2, with 6.9 ± 0.4 nM; and B3, with 6.99 ± 0.32 nM.

B4 came in with a Kd of 22.2 ± 1.5 nM.

The molecule B5 had a Kd of 12.8 ± 0.7 nM. As for B6, the figure is 4.63 ± 0.25 nM. Then B7, with 14.2 ± 1.2 nM; and B8, with 13.8 ± 1 nM. Molecule B9 yielded an equilibrium dissociation constant (Kd) of 76 ± 12 nM. As for B10, the figure is 76 ± 14 nM; as for B11, 46 ± 6 nM; as for B12, 50 ± 10 nM.

With B13, the Kd is 17.9 ± 2 nM.

As for B14, the affinity, expressed as Kd, was 12.7 ± 0.6 nM. As for B15, the figure is 26.7 ± 2.1 nM. In the case of B16, the Kd came out at 11.9 ± 1.3 nM. Regarding B17, the Kd amounted to 7.05 ± 0.33 nM. Then B18, with 73 ± 13 nM; and B19, with 21.6 ± 1.5 nM; and B20, with 8.5 ± 0.4 nM.

Turning to B21, the Kd stood at 22.1 ± 1.8 nM. Consider B22, for which the affinity, expressed as Kd, was 10.4 ± 1.1 nM. Then B23, with 92 ± 34 nM; and B24, with 50 ± 6 nM.

B25 returned a Kd of 42 ± 6 nM.

As to B26, the equilibrium dissociation constant (Kd) was 29.2 ± 3.2 nM. As for B27, the figure is 23.7 ± 0.8 nM.
